Test results from patent US20030072752A1 (GENERAL HOSPITAL CORPORATION A MASSACHUSETTS, published 2003).

B1: squamous cell carcinoma-antigen (SCC-A) (other, UniProt P29508 1-390, looked up)
chain: MNSLSEANTKFMFDLFQQFRKSKENNIFYSPISITSALGMVLLGAKDNTAQQIKKVLHFDQVTENTTGKAATYHVDRSGNVHHQFQKLLTEFNKSTDAYELKIANKLFGEKTYLFLQEYLDAIKKFYQTSVESVDFANAPEESRKKINSWVESQTNEKIKNLIPEGNIGSNTTLVLVNAIYFKGQWEKKFNKEDTKEEKFWPNKNTYKSIQMMRQYTSFHFASLEDVQAKVLEIPYKGKDLSMIVLLPNEIDGLQKLEEKLTAEKLMEWTSLQNMRETRVDLHLPRFKVEESYDLKDTLRTMGMVDIFNGDADLSGMTGSRGLVLSGVLHKAFVEVTEEGAEAAAATAVVGFGSSPASTNEEFHCNHPFLFFIRQNKTNSILFYGRFSSP

Key:
[1] = target: T1, bovine cathepsin L (bovine, UniProt P25975 118-334, limits assumed); test: enzyme inhibition (method not restated here)
T1 construct: also called chatepsin L

[2] = target: papain (UniProt P00784); test: enzyme inhibition, Dixon plots at different substrate concentrations (BANA)
[3] = target: T1, bovine cathepsin L; test: enzyme inhibition, Dixon plots at different substrate concentrations (Z-Phe-Arg-MCA)
[4] = target: T1, bovine cathepsin L; test: enzyme inhibition (method and origin of the value not stated)

T1 sequence (P25975 118-334 limits assumed): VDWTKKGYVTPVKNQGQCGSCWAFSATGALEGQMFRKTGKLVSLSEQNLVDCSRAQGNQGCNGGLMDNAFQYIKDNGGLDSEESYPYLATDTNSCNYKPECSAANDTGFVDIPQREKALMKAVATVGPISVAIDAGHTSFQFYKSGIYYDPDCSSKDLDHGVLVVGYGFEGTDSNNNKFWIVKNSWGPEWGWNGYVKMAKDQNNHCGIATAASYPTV
Chain of papain (P00784 134-345 limits assumed): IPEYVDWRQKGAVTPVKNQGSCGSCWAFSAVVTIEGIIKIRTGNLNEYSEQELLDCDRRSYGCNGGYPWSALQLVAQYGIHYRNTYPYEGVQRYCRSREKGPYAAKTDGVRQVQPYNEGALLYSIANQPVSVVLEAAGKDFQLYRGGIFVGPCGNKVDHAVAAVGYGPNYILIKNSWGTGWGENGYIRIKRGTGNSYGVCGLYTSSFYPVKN

Row | Molecule | Ki [1] | Ki [2] | Ki [3] | Ki [4]
1 | psoriastatin preparation (purified from psoriatic scale extract) | 5.9 nM | 1.68 nM | 1.9 nM | –
2 | B1 | – | – | – | 0.067 nM
